Our source for the reversal potential of HCN co-transfected with SPC and reversal potential of the current left after superfusion with Cs to block HCN1 homomultimers values is patent publication US20090304588A1.

This assay deals with T1, Hyperpolarization-activated cyclic-nucleotide-gated (HCN) ion channel 1 (HCN1).
T1 sequence (O60741 1-890, species assumed, looked up): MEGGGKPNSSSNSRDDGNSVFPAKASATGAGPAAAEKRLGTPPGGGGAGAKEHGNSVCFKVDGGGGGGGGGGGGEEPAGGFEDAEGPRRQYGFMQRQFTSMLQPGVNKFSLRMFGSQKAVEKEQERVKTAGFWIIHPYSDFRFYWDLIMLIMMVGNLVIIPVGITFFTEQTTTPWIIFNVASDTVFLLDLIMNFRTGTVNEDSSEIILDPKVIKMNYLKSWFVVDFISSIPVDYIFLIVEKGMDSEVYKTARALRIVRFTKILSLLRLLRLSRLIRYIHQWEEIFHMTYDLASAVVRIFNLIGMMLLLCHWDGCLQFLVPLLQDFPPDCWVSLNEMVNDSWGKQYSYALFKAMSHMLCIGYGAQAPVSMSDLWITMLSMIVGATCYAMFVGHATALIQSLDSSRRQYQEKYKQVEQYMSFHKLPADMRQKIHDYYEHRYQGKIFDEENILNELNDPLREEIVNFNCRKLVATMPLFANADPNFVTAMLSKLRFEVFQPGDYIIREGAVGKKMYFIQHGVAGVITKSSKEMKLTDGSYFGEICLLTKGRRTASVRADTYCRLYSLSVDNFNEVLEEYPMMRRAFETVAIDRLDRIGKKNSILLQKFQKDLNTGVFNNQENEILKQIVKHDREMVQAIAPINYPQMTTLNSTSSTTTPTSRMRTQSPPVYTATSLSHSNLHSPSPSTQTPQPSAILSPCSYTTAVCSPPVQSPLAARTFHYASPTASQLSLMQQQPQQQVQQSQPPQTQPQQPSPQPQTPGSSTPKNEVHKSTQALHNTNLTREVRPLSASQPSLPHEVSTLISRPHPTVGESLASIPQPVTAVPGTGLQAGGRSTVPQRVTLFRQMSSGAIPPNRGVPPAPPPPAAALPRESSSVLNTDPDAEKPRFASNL
Kind of assay: cell-based or functional assay.

With “S4TKv1.4GYS (human Kv1.4 with S4 triple mutation R447N, L448A, R453I and pore mutation G528S) (from UniProt P22459 1-653)”, the reversal potential of HCN co-transfected with SPC is -22 mV and the reversal potential of the current left after superfusion with Cs to block HCN1 homomultimers was -11.1 mV.
